T1: GST-tagged wild-type swiprosin-1 (human, UniProt Q96C19 1-240)
T1 construct: swiprosin-1, human, full length, in pGEX-4T-1; source: E. coli BL21, purified (glutathione beads, eluted with glutathione)
T1 sequence (looked up): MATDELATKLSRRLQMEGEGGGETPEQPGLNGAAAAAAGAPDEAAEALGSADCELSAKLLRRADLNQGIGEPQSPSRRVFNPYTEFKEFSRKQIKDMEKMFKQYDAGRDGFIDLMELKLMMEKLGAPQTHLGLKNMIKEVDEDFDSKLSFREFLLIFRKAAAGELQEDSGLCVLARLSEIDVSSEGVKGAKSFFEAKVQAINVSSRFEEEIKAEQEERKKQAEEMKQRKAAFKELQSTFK

B1: GST-tagged swiprosin-1 163–240 (domain or fragment, human, UniProt Q96C19 163-240, looked up)
chain: GELQEDSGLCVLARLSEIDVSSEGVKGAKSFFEAKVQAINVSSRFEEEIKAEQEERKKQAEEMKQRKAAFKELQSTFK
notes: swiprosin-1, human, residues 163–240 (C-terminal region with the coiled-coil domain), in pGEX-4T-1; also called 163–240 (h); source: E. coli BL21, purified (glutathione beads, eluted with glutathione)
B2: His-tagged wild-type swiprosin-1 (natural protein, human, UniProt Q96C19 1-240, looked up)
chain: T1 sequence (looked up)
notes: swiprosin-1, human, full-length clone amplified from pOTB7 (RZPD), cloned into a modified pET-28a; The modified pET-28a carries a TEV protease cleavage site (ENLYFQ/G) with the N-terminal tandem His tags; no cleavage is described and the protein is detected with anti-His; also called Swip-1; source: E. coli BL21 (DE3), purified (Ni-NTA agarose); not shown: His tag (tandem), N-terminal, kept
B3: GST-tagged swiprosin-1 200–240 (domain or fragment, human, UniProt Q96C19 200-240, looked up)
chain: AINVSSRFEEEIKAEQEERKKQAEEMKQRKAAFKELQSTFK
notes: swiprosin-1, human, residues 200–240 (C-terminal coiled-coil region), in pGEX-4T-1; also called 200–240 (i); source: E. coli BL21, purified (glutathione beads, eluted with glutathione)

For experiment [1], the target named is B2. Briefly: pull-down; GST pull-down: equal amounts of purified GST_Swip-1 (wild type or mutants) and His_Swip-1 with glutathione-Sepharose 4B beads, 2 h at 4°C, 50 mM Hepes pH 7.4, 150 mM NaCl, 1.5 mM MgCl2, 1% Triton X-100; blot with anti-His; also with or without 2 mM EGTA. Conditions: both partners purified.
The target in experiment [2] is T1, GST-tagged wild-type swiprosin-1. Described as above. Particulars: both partners purified.

As to B1, the binding result in experiment [1] was “binds”.

B2: the binding result in experiment [2] is on record as “binds”.

As for B3, the binding result in experiment [1] was “binds”.

Source of the values: publication PMC3744483, “Swiprosin-1 Is a Novel Actin Bundling Protein That Regulates Cell Spreading and Migration” (PLoS ONE, 2013).
